Measured values from publication PMC12282130.

Biological target: PlMYB73-nLUC (Paeonia lactiflora)

Question: cLUC-PlMYB70 (natural protein) was tested. Which Dual-LUC reporter in N. benthamiana leaves: activation of PlTPS1pro (LUC/REN) by PlMYB73 together with PlMYB70, against PlMYB70 alone did it give?
Answer: 3.45 fold
